This note sets out measurements from PMC3084036 (Journal of molecular biology, 2011).

Data set [1] deals with chicken VE-cadherin EC1-2, wild type (chicken). Description: AUC.
The target of data set [2] is human VE-cadherin EC1-2, wild type (human). Description: AUC.
Data set [3] addresses human VE-cadherin EC1-5 ectodomain, wild type, glycosylated (human). Description: AUC.
For data set [4], the target named is human VE-cadherin EC3-4, wild type, bacterially produced (human). Description: SEC. In general terms: Size exclusion chromatography separates by hydrodynamic size, large species first.
Data set [5] shares this target. The data set can be described thus: AUC.
The target of data set [6] is mouse VE-cadherin EC1-2, wild type (mouse). The data set can be described thus: AUC.
Data set [7] deals with mouse cadherin-9 EC1-2, wild type (mouse). The data set can be described thus: AUC.
The target in data set [8] is mouse cadherin-10 EC1-2, wild type (mouse). Description: AUC.
The data set “AUC” concerns the molecule itself. Description: AUC.

The Kd is the equilibrium constant for the complex coming apart. Read a low Kd as a tighter complex. “chicken VE-cadherin EC1-2, wild type (domain or fragment)” registered a Kd in [1] of 1.63 µM. “human VE-cadherin EC1-2, wild type (domain or fragment)” showed a dissociation constant (Kd) in data set [2] of 4.38 µM. Molecule “human VE-cadherin EC1-5 ectodomain, wild type, glycosylated (domain or fragment)” displayed a Kd in [3] of 1.03 µM. Broadly, the stoichiometry N is a count of units in the complex or per binding partner. For “human VE-cadherin EC3-4, wild type, bacterially produced (domain or fragment)”, the stoichiometry N in data set [4] amounted to 2. For the same molecule, the Kd in data set [5] amounted to 1.93 µM. Molecule “mouse VE-cadherin EC1-2, wild type (domain or fragment)” showed a Kd in [6] of 2.22 µM. For the molecule “mouse cadherin-9 EC1-2, wild type (domain or fragment)”, the Kd in [7] came out at 17 µM. Turning to “mouse cadherin-10 EC1-2, wild type (domain or fragment)”, the equilibrium dissociation constant (Kd) in data set [8] was determined as 42.2 µM.

B1: mouse cadherin-11 EC1-2, wild type (domain or fragment)
chain: GWVWNQFFVIEEYTGPDPVLVGRLHSDIDSGDGNIKYILSGEGAGTIFVIDDKSGNIHATKTLDREERAQYTLMAQAVDRDTNRPLEPPSEFIVKVQDINDNPPEFLHEIYHANVPERSNVGTSVIQVTASDADDPTYGNSAKLVYSILEGQPYFSVEAQTGIIRTALPNMDREAKEEYHVVIQAKDMGGHMGGLSGTTKVTITLTD
The molecule B1 showed an equilibrium dissociation constant (Kd) in “AUC” of 33.8 ± 0.2 µM.

B2: chicken VE-cadherin EC1-5 ectodomain, wild type, glycosylated (domain or fragment)
chain: DWIWNRMHIREEIDSPLPHHVGKLTSSVGNKNAMYIIEGESANTIFKVQGYDGDIYAFERLDREKKAEYELTAHIIDRRNNRSLEPPSKFIIKVSDINDNAPIFVQKIFNGSVPEMSRLGTSVTKVTAEDADDPTVAGHATVTYQIIKGNEYFTVDDSGVIFTARADLDRESQSAYEIIVKAKDALGLTGESSTATVIIRLTDINDNFPVFKHPSFHFRVPENISVGGEVGRVKVEDIDEPQHRNTKYSFVRGDYRDTFEIIANPFTNEGIIRPKKPLDFEKVAEYRFDIEATDHNVNPAYYKPGGSRSISTITIEVTDVDEPPVFTKLSYEFKVRENDPEIKTLGSVWAHDPDAAKRKIRFARRRASPNGDYVRVSDSGIIQLPKPLDREFSSLYNITVAAQEILEDGRLSDRESHAQVHVIVTDENDNAPELVYPEEPRVCENAAPGKVIIRISATDKDEISPGGFFTYSLTTEDSNFSLTENPDNTANITVKDGQFNRELAKIHYLPVIISDNGNPELSSTNTLVISVCKCNEKGDFTFCEE
modifications: glycosylated (N-linked and O-linked sugar)
Take B2: in “AUC”, the affinity, expressed as Kd, was 1.14 ± 0.04 µM.

B3: mouse cadherin-8 EC1-3, wild type (domain or fragment)
chain: GWVWNQMFVLEEFSGPEPILVGRLHTDLDPGSKKIKYILSGDGAGTIFQINDITGDIHAIKRLDREEKAEYTLTAQAVDFETNKPLEPPSEFIIKVQDINDNAPEFLNGPYHATVPEMSILGTSVTNVTATDADDPVYGNSAKLVYSILEGQPYFSIEPETAIIKTALPNMDREAKEEYLVVIQAKDMGGHSGGLSGTTTLTVTLTDVNDNPPKFAQSLYHFSVPEDVVLGTAIGRVKANDQDIGENAQSSYDIIDGDGTALFEITSDAQAQDGVIRLRKPLDFETKKSYTLKVEAANIHIDPRFSSRGPFKDTATVKIVVEDADEPPVF
As to B3, binding in the data set “AUC” was put at a Kd of 15 ± 0.4 µM.

B4: chicken cadherin-6b EC1-2, wild type (domain or fragment)
chain: SWMWNQFFLLEEYTGTDYQYVGKLHSDQDKGDGSLKYILSGDGAGDLFIINENTGDIQATKRLDREEKPVYILRAQAINRRTGRPVEPESEFIIKIHDINDNEPMFTKDVYNASIPEMSDVGTFVVQVTATDADDPTYGNSAKVVYSILQGQPYFSVESETGIIKTALLNMDRENREQYQVVIQAKDMGGQMGGLSGTTTVNITLTDVNDNPPRF
Turning to B4, the dissociation constant Kd in the data set “AUC” is 9.2 ± 0.6 µM.
